Reference: PMC12344899

What follows are substances tested against mCherry-A44 (assay: anti-GFP affinity gel immunoprecipitation and western blot densitometry). Conditions: HEK293T cells co-transfected, lysed at 2 dpt; parent: est. 1.0; read off a plot.

Row | Substance | response (relative density (intrabody / Etf-2-GFP))
1 | Etf-2 (full-length)–GFP (from UniProt Q2GHK1) Q245A | 0.25
2 | Etf-2 (full-length)–GFP (from UniProt Q2GHK1) R188A | 1.1
3 | Etf-2 (full-length)–GFP (from UniProt Q2GHK1) R188A; Q245A | 0.24

These substances were tested against mCherry-A123 in the same assay as above. Conditions: HEK293T cells co-transfected, lysed at 2 dpt; parent: est. 0.97; read off a plot.

Row | Substance | response (relative density (intrabody / Etf-2-GFP))
4 | Etf-2 (full-length)–GFP (from UniProt Q2GHK1) Q245A | 0.84
5 | Etf-2 (full-length)–GFP (from UniProt Q2GHK1) R188A | 0.94
6 | Etf-2 (full-length)–GFP (from UniProt Q2GHK1) R188A; Q245A | 0.1

What follows are substances tested against mCherry-A171 in the same assay as above. Conditions: HEK293T cells co-transfected, lysed at 2 dpt; parent: est. 1.0; read off a plot.

Row | Substance | response (relative density (intrabody / Etf-2-GFP))
7 | Etf-2 (full-length)–GFP (from UniProt Q2GHK1) Q245A | 0.83
8 | Etf-2 (full-length)–GFP (from UniProt Q2GHK1) R188A | 0.85
9 | Etf-2 (full-length)–GFP (from UniProt Q2GHK1) R188A; Q245A | 0.88
